Test results: PMC7532178, “Interaction of protocadherin-15 with the scaffold protein whirlin supports its anchoring of hair-bundle lateral links in cochlear hair cells” (Scientific Reports, 2020)

B1: whirlin-NTR-PDZ1-Hp1 (aa residues 2-265) [mouse] / PCDH15-CD1 C-terminal peptide (biotin-TTDS-GIDVQPHSQSTSL) [modified: biotin-TTDS (trioxatridecan-succinamic acid spacer) on the N-terminus; biotin-TTDS (trioxatridecan-succinamic acid … (parent complex)
chain 1: GAMGSTSNAQLDGLSVSSSSTGSLGSAAAAAGGGGGAGLRLLSANVRQLHQALTALLSEPEREQFTHCLNAYHARRNVFDLVRTLRVLLDSPVKRRLLPMLRLVIPRSDQLLFDQYTAEGLYLPATTPYRQPAWAAPDGAGPGEVRLVSLRRAKAHEGLGFSIRGGSEHGVGIYVSLVEPGSLAEKEGLRVGDQILRVNDKSLARVTHAEAVKALKGSKKLVLSVYSAGRIPGGYVTNHIYTWVDPQGRSTSPPSSLPQPHGSTLRQREDD
chain 2: GIDVQPHSQSTSL
B2: whirlin-NTR-PDZ1-Hp1 (aa residues 2-265) [mouse] / PCDH15-CD3 C-terminal peptide (biotin-TTDS-MGPWNSLHIPMTKL) [modified: biotin-TTDS (trioxatridecan-succinamic acid spacer) on the N-terminus; biotin-TTDS (trioxatridecan-succinamic acid … (parent complex)
chain 1: B1 chain 1
chain 2: MGPWNSLHIPMTKL
B3: whirlin-NTR-PDZ1-Hp1 (aa residues 2-265) [mouse] / CDH23 C-terminal peptide (biotin-TTDS-VIMESPLEITEL) [modified: biotin-TTDS (trioxatridecan-succinamic acid spacer) on the N-terminus; biotin-TTDS (trioxatridecan-succinamic acid spacer) on … (parent complex)
chain 1: B1 chain 1
chain 2: VIMESPLEITEL
B4: whirlin-NTR-PDZ1-Hp1 (aa residues 2-265) [mouse] / PCDH15-CD2 C-terminal peptide (biotin-TTDS-GANSEQYNTAL) [modified: biotin-TTDS (trioxatridecan-succinamic acid spacer) on the N-terminus; biotin-TTDS (trioxatridecan-succinamic acid … (parent complex)
chain 1: B1 chain 1
chain 2: GANSEQYNTAL

Variants of: B1
Assay: SPR; whirlin construct at 10 μM; peptide immobilized via N-terminal biotin tag; parent: 23; read off a plot

response | Variant
~2 % site occupancy | chain 1 GAMGSTSNAQLDGLSVSSSSTGSLGSAAAAAGGGGGAGLRLLSANVRQLHQALTALLSEPEREQFTHCLNAYHARRNVFDLVRTLRVLLDSPVKRRLLPMLRLVIPRSDQLLFDQYTAEGLYLPATTPYRQPAWAAPDGAGPGEVRLVSLRRAKAHEGLAFSIRGGSEHGVGIYVSLVEPGSLAEKEGLRVGDQILRVNDKSLARVTHAEAVKALKGSKKLVLSVYSAGRIPGGYVTNHIYTWVDPQGRSTSPPSSLPQPHGSTLRQREDD [chain 1 G160A]
~-1 % site occupancy | chain 1 GAMGSTSNAQLDGLSVSSSSTGSLGSAAAAAGGGGGAGLRLLSANVRQLHQALTALLSEPEREQFTHCLNAYHARRNVFDLVRTLRVLLDSPVKRRLLPMLRLVIPRSDQLLFDQYTAEGLYLPATTPYRQPAWAAPDGAGPGEVRLVSLRRAKAHEGLGFSIRGGSEHGVGIYVSLVEPGSLAEKEGLRVGDQILRVNDKSLARVTYAEAVKALKGSKKLVLSVYSAGRIPGGYVTNHIYTWVDPQGRSTSPPSSLPQPHGSTLRQREDD [chain 1 H208Y]

Variants of: B2
Assay: SPR; whirlin construct at 10 μM; peptide immobilized via N-terminal biotin tag; parent: 29; read off a plot

response | Variant
~1.5 % site occupancy | chain 1 GAMGSTSNAQLDGLSVSSSSTGSLGSAAAAAGGGGGAGLRLLSANVRQLHQALTALLSEPEREQFTHCLNAYHARRNVFDLVRTLRVLLDSPVKRRLLPMLRLVIPRSDQLLFDQYTAEGLYLPATTPYRQPAWAAPDGAGPGEVRLVSLRRAKAHEGLGFSIRGGSEHGVGIYVSLVEPGSLAEKEGLRVGDQILRVNDKSLARVTYAEAVKALKGSKKLVLSVYSAGRIPGGYVTNHIYTWVDPQGRSTSPPSSLPQPHGSTLRQREDD [chain 1 H208Y]
~9.5 % site occupancy | chain 1 GAMGSTSNAQLDGLSVSSSSTGSLGSAAAAAGGGGGAGLRLLSANVRQLHQALTALLSEPEREQFTHCLNAYHARRNVFDLVRTLRVLLDSPVKRRLLPMLRLVIPRSDQLLFDQYTAEGLYLPATTPYRQPAWAAPDGAGPGEVRLVSLRRAKAHEGLAFSIRGGSEHGVGIYVSLVEPGSLAEKEGLRVGDQILRVNDKSLARVTHAEAVKALKGSKKLVLSVYSAGRIPGGYVTNHIYTWVDPQGRSTSPPSSLPQPHGSTLRQREDD [chain 1 G160A]

Variants of: B3
Assay: SPR; whirlin construct at 10 μM; peptide immobilized via N-terminal biotin tag; parent: 11; read off a plot

response | Variant
~1.5 % site occupancy | chain 1 GAMGSTSNAQLDGLSVSSSSTGSLGSAAAAAGGGGGAGLRLLSANVRQLHQALTALLSEPEREQFTHCLNAYHARRNVFDLVRTLRVLLDSPVKRRLLPMLRLVIPRSDQLLFDQYTAEGLYLPATTPYRQPAWAAPDGAGPGEVRLVSLRRAKAHEGLAFSIRGGSEHGVGIYVSLVEPGSLAEKEGLRVGDQILRVNDKSLARVTHAEAVKALKGSKKLVLSVYSAGRIPGGYVTNHIYTWVDPQGRSTSPPSSLPQPHGSTLRQREDD [chain 1 G160A]
~1 % site occupancy | chain 1 GAMGSTSNAQLDGLSVSSSSTGSLGSAAAAAGGGGGAGLRLLSANVRQLHQALTALLSEPEREQFTHCLNAYHARRNVFDLVRTLRVLLDSPVKRRLLPMLRLVIPRSDQLLFDQYTAEGLYLPATTPYRQPAWAAPDGAGPGEVRLVSLRRAKAHEGLGFSIRGGSEHGVGIYVSLVEPGSLAEKEGLRVGDQILRVNDKSLARVTYAEAVKALKGSKKLVLSVYSAGRIPGGYVTNHIYTWVDPQGRSTSPPSSLPQPHGSTLRQREDD [chain 1 H208Y]

Variants of: B4
Assay: SPR; whirlin construct at 10 μM; peptide immobilized via N-terminal biotin tag; parent: 15; read off a plot

response | Variant
~0.5 % site occupancy | chain 1 GAMGSTSNAQLDGLSVSSSSTGSLGSAAAAAGGGGGAGLRLLSANVRQLHQALTALLSEPEREQFTHCLNAYHARRNVFDLVRTLRVLLDSPVKRRLLPMLRLVIPRSDQLLFDQYTAEGLYLPATTPYRQPAWAAPDGAGPGEVRLVSLRRAKAHEGLGFSIRGGSEHGVGIYVSLVEPGSLAEKEGLRVGDQILRVNDKSLARVTYAEAVKALKGSKKLVLSVYSAGRIPGGYVTNHIYTWVDPQGRSTSPPSSLPQPHGSTLRQREDD [chain 1 H208Y]
~2.5 % site occupancy | chain 1 GAMGSTSNAQLDGLSVSSSSTGSLGSAAAAAGGGGGAGLRLLSANVRQLHQALTALLSEPEREQFTHCLNAYHARRNVFDLVRTLRVLLDSPVKRRLLPMLRLVIPRSDQLLFDQYTAEGLYLPATTPYRQPAWAAPDGAGPGEVRLVSLRRAKAHEGLAFSIRGGSEHGVGIYVSLVEPGSLAEKEGLRVGDQILRVNDKSLARVTHAEAVKALKGSKKLVLSVYSAGRIPGGYVTNHIYTWVDPQGRSTSPPSSLPQPHGSTLRQREDD [chain 1 G160A]
